Values quoted from earlier work, collected in article PMC10404681, “Intrinsic catalytic properties of histone H3 lysine-9 methyltransferases preserve monomethylation levels under low S-adenosylmethionine” (The Journal of Biological Chemistry, 2023).
pKd: −log10 of the molar value.

Biological target: histone H3 peptide (Homo sapiens) (UniProt P68431)

Sequence of EHMT1/EHMT2 heterodimer (Q9H9B1 2-1298): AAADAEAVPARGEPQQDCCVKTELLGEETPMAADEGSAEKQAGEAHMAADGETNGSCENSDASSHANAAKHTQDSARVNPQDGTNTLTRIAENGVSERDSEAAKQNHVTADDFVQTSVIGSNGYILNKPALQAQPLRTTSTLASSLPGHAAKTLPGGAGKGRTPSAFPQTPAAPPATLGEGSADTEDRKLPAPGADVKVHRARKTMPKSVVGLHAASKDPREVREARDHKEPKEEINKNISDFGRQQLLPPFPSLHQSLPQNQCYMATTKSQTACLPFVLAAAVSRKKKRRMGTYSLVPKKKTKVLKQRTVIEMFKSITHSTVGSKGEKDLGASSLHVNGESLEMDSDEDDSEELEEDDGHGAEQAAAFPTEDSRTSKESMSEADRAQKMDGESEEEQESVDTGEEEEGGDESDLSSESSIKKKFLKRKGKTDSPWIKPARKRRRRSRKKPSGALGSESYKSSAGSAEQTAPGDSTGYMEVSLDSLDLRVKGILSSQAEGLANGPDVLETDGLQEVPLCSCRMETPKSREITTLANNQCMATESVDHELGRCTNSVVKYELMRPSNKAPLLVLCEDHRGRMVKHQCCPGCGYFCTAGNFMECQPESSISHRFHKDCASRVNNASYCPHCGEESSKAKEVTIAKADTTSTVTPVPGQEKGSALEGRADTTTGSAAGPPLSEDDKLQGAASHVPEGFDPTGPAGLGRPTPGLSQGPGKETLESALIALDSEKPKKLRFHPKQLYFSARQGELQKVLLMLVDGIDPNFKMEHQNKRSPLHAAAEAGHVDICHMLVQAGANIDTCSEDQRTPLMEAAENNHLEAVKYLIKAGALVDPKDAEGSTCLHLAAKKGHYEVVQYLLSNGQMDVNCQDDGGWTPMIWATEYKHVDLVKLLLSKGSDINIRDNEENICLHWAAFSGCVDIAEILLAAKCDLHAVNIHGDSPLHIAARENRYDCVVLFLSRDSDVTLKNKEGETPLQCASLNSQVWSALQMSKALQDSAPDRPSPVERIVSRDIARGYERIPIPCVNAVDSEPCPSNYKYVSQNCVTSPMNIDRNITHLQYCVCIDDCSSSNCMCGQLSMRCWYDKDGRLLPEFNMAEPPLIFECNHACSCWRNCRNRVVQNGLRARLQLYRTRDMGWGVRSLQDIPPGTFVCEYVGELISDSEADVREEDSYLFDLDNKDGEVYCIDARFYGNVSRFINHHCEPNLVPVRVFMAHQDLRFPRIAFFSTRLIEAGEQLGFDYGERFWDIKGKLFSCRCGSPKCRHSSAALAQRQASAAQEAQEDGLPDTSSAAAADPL
Sequence of EHMT1/EHMT2 heterodimer (Q96KQ7 2-1210, further chain): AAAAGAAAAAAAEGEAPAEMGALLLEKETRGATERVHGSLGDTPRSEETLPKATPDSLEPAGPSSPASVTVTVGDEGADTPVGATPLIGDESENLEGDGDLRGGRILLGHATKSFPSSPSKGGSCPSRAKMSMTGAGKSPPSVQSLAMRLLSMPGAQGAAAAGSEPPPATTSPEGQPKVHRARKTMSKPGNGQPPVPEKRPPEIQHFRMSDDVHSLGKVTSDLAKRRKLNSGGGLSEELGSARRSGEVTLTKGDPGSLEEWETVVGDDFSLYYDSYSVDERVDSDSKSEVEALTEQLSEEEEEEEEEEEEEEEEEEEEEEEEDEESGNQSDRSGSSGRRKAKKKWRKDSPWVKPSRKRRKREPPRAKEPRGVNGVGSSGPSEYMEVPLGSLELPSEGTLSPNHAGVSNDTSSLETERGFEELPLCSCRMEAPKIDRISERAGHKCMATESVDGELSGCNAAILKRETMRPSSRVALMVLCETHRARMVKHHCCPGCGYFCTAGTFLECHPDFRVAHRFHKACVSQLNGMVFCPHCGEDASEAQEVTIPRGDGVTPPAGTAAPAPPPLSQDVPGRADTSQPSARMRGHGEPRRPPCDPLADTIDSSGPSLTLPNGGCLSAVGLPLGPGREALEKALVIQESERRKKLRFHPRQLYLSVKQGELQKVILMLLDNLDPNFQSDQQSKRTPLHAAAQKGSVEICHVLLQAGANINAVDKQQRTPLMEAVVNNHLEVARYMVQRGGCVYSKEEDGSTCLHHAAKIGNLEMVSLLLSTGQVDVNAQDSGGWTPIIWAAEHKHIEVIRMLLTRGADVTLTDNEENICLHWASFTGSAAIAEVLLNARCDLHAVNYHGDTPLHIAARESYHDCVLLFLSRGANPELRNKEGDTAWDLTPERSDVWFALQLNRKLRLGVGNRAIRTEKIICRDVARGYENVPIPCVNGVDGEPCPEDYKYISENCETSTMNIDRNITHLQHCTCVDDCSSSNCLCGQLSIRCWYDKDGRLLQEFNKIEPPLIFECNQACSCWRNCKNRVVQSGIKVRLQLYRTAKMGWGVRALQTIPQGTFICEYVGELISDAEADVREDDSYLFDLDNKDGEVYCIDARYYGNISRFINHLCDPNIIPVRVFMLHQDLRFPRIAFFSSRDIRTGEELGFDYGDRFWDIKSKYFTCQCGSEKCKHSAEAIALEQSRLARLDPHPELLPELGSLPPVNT

pKd: 5.13
Substance: EHMT1/EHMT2 heterodimer (from UniProt Q9H9B1)
